Results from patent publication US20230381333A1 (HANMI PHARM, published 2023).
Bridge positions count the residues as written; N and C are the ends. Square brackets hold non-standard residues; d marks the D form. Ends that are not written are not given here. * marks the point of attachment. Acetyl(2-(4-imidazolyl)) = O=C(Cc1c[nH]cn1)*; Aib = CC(C)(N)C(=O)O

Assays:
Assay in all cases: cell-based or functional assay
[1] = molecular target: T1, human GIP receptor (human, UniProt P48546 22-466)
T1 sequence (looked up): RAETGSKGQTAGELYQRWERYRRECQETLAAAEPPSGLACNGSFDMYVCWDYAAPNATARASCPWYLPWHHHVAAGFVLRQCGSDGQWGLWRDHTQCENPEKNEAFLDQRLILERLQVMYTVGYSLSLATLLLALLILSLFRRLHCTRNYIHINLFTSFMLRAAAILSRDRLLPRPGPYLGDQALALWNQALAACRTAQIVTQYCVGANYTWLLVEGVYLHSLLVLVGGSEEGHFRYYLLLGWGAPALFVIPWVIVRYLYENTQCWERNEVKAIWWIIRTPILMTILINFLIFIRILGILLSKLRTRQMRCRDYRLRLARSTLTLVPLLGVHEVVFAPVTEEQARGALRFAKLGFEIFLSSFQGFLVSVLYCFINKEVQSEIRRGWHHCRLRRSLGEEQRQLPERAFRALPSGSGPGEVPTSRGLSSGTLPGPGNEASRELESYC

[2] = molecular target: human GCG receptor (human, UniProt P47871 26-477)
Chain of human GCG receptor (P47871 26-477): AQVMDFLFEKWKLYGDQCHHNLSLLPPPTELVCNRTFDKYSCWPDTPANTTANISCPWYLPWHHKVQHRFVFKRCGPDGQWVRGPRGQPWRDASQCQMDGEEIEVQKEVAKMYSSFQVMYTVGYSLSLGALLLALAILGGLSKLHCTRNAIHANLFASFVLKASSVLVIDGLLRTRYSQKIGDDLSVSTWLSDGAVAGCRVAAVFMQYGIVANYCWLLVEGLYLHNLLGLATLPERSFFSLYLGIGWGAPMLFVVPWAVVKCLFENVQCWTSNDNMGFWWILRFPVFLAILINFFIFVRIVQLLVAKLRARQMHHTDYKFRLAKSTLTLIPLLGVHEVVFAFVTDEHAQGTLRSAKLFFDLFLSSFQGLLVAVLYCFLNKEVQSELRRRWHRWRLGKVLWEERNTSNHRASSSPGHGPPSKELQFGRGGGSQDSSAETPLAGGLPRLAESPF

[3] = molecular target: human GLP-1 receptor (human, UniProt P43220 24-463)

## H[Aib]QGTFTSDYSKYLDERACQDFVQWLLDQGGPSSGAPPPS [triple agonist of SEQ ID NO: 27]
[1]
  In vitro activity compared to native-type peptide (%), vs GIP: 0.9%
[2]
  In vitro activity compared to native-type peptide (%), vs Glucagon: 0.8%
[3]
  In vitro activity compared to native-type peptide (%), vs GLP-1: 83.1%

## H[Aib]QGTFTSDCSKYLDSRAAQDFVQWLLDGGPSSGAPPPS [triple agonist of SEQ ID NO: 26]
[1]
  In vitro activity compared to native-type peptide (%), vs GIP: < 0.1%
[2]
  In vitro activity compared to native-type peptide (%), vs Glucagon: 0.2%
[3]
  In vitro activity compared to native-type peptide (%), vs GLP-1: 64.5%

## Y[Aib]QGTFTSDYSKYLDECRAKEFVQWLLAQKGKKNDWKHNIT (bridge 16-20) [triple agonist of SEQ ID NO: 23]
[1]
  In vitro activity compared to native-type peptide (%), vs GIP: < 0.1%
[2]
  In vitro activity compared to native-type peptide (%), vs Glucagon: 9.3%
[3]
  In vitro activity compared to native-type peptide (%), vs GLP-1: 4.01%

## H[Aib]QGTFTSDCSKYLDERAAQDFVQWLLDGGPSSGAPPPS [triple agonist of SEQ ID NO: 25]
[1]
  In vitro activity compared to native-type peptide (%), vs GIP: < 0.1%
[2]
  In vitro activity compared to native-type peptide (%), vs Glucagon: 0.1%
[3]
  In vitro activity compared to native-type peptide (%), vs GLP-1: 82.6%

## H[Aib]QGTFTSDYSKYLDEKACKEFVQWLLAQ (bridge 16-20) [triple agonist of SEQ ID NO: 31]
[1]
  In vitro activity compared to native-type peptide (%), vs GIP: 2.4%
[2]
  In vitro activity compared to native-type peptide (%), vs Glucagon: 2.2%
[3]
  In vitro activity compared to native-type peptide (%), vs GLP-1: 135%

## Y[Aib]QGTFTSDYSKCLDEKRAKEFVQWLLDHHPSSGQPPPS (bridge 16-20) [triple agonist of SEQ ID NO: 22]
[1]
  In vitro activity compared to native-type peptide (%), vs GIP: 59.7%
[2]
  In vitro activity compared to native-type peptide (%), vs Glucagon: 140%
[3]
  In vitro activity compared to native-type peptide (%), vs GLP-1: 20.1%

## H[Aib]QGTFTSDVSSYLLGQAAKQFIAWLVKGGGPSSGAPPPSC [triple agonist of SEQ ID NO: 3]
[1]
  In vitro activity compared to native-type peptide (%), vs GIP: < 0.1%
[2]
  In vitro activity compared to native-type peptide (%), vs Glucagon: < 0.1%
[3]
  In vitro activity compared to native-type peptide (%), vs GLP-1: 1.8%

## Y[Aib]QGTFTSDYSKYLDECRAKEFVQWLKNGGPSSGAPPPS (bridge 16-20) [triple agonist of SEQ ID NO: 24]
[1]
  In vitro activity compared to native-type peptide (%), vs GIP: < 0.1%
[2]
  In vitro activity compared to native-type peptide (%), vs Glucagon: 9.3%
[3]
  In vitro activity compared to native-type peptide (%), vs GLP-1: 41.2%

## H[Aib]QGTFTSDYSKYLDEKACKDFVQWLLDGGPSSGAPPPS (bridge 16-20) [triple agonist of SEQ ID NO: 32]
[1]
  In vitro activity compared to native-type peptide (%), vs GIP: 8.8%
[2]
  In vitro activity compared to native-type peptide (%), vs Glucagon: 1.7%
[3]
  In vitro activity compared to native-type peptide (%), vs GLP-1: 151%

## H[Aib]QGTFTSDYSKYLDEKAQKEFVQWLLDTC (bridge 16-20) [triple agonist of SEQ ID NO: 30]
[1]
  In vitro activity compared to native-type peptide (%), vs GIP: 0.8%
[2]
  In vitro activity compared to native-type peptide (%), vs Glucagon: 0.7%
[3]
  In vitro activity compared to native-type peptide (%), vs GLP-1: 142%

## [Acetyl(2-(4-imidazolyl))]GQGTFTSDLSIQYEEEAQQDFVEWLKDTGPSSGAPPPSHG [triple agonist of SEQ ID NO: 20]
[1]
  In vitro activity compared to native-type peptide (%), vs GIP: < 0.1%
[2]
  In vitro activity compared to native-type peptide (%), vs Glucagon: < 0.1%
[3]
  In vitro activity compared to native-type peptide (%), vs GLP-1: < 0.1%

## H[Aib]QGTFTSDYSKYLDEKRAQEFVCWLLAQKGKKNDWKHNIT [triple agonist of SEQ ID NO: 28]
[1]
  In vitro activity compared to native-type peptide (%), vs GIP: < 0.1%
[2]
  In vitro activity compared to native-type peptide (%), vs Glucagon: 1.6%
[3]
  In vitro activity compared to native-type peptide (%), vs GLP-1: 17.2%

## H[Aib]QGTFTSDYSKYLDEKAAKEFVQWLLNTC (bridge 16-20) [triple agonist of SEQ ID NO: 29]
[1]
  In vitro activity compared to native-type peptide (%), vs GIP: < 0.1%
[2]
  In vitro activity compared to native-type peptide (%), vs Glucagon: 6%
[3]
  In vitro activity compared to native-type peptide (%), vs GLP-1: 38.5%

## H[Aib]QGTFTSDYSIAMDEIHQKDFVNWLLAQKC (bridge 16-20) [triple agonist of SEQ ID NO: 33]
[1]
  In vitro activity compared to native-type peptide (%), vs GIP: 10.4%
[2]
  In vitro activity compared to native-type peptide (%), vs Glucagon: < 0.1%
[3]
  In vitro activity compared to native-type peptide (%), vs GLP-1: 24.5%

## Y[Aib]QGTFTSDYSKYLDECRAKEFVQWLLDHHPSSGQPPPS (bridge 16-20) [triple agonist of SEQ ID NO: 21]
[1]
  In vitro activity compared to native-type peptide (%), vs GIP: 22.7%
[2]
  In vitro activity compared to native-type peptide (%), vs Glucagon: 267%
[3]
  In vitro activity compared to native-type peptide (%), vs GLP-1: 17.8%
